Results on 41 sequences are retold here after the nanobody polyreactivity screen of Harvey et al. (2022).

A short description of this series: yeast display, Sf9 membrane polyspecificity reagent, FACS + sequencing; frameworks hold sequencing errors. A digest of the protocol:
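Nanobodies came from a synthetic yeast display library in Saccharomyces cerevisiae BJ5465, induced with galactose for 36–48 hours and stained for 1 hour at 4 °C with 10% biotinylated, detergent-solubilized Sf9 membrane reagent. Cells were enriched on streptavidin microbeads and then FACS-sorted, with low and high (top ~1%) gates set on anti-HA fluorescence for expression and streptavidin fluorescence for reagent binding. Each polyreactivity label reflects the gate a clone came from. Genes were amplified by colony PCR, sequenced by MiSeq 2 × 250 and filtered by CDR length.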
Take “QVQLVESGGGLVQAGGSLRLSCAASGSTFRFNTMGWYRQAPGKERELVAAISYSGGSTYYADSVKGRFTISRDNAKNTVYLQMNSLKPEDTAVYYCAVQAWYLTYSYPYSKGYYWGQGTQVTVSS”: the “polyreactivity (PSR sort gate)” value is “high polyreactivity”.
The entry for “QVQLVESGGGLVQAGGSLRLSCAASGSTFRFNTMGWYRQAPGKERGLVACIAAGTTTNYADSVKGRFTISRDNAKNTVYLQMNSLKPEDAAVYYCAALNAFNTGHWYWGQGTQVTVSS” is “low polyreactivity”.
As for “QVQLVESGGGLVQAGGSLRLSCAASGSTFRFYAMGWYRQAPGKERELVAVISFNDGSTYYADSVKGRFTISRDNAKNTVYLQMNSLKPEDTAVYYCATDELDSWWYEYEYWGQGTQVTVSS”, the entry is “low polyreactivity”; as for “QVQLVESGGGLVQAGGSLRLSCAASGSTFRFYAMGWYRQEPGKERELVAAITSSGGSTYYADSVKGRFTISRDNAKNTVYLQMNSLKPEDTAVYYCNAYPNPVSYELDYWGQGTQVTVSS”, “low polyreactivity”.
The entry for “QVQLVESGGGLVQAGGSLRLSCAASGSTFRGYAMGSYRQAPGKETELVATITSGGSTNYADSVKGRFTISRDNAKNTVSLQMNSLKPEDTAVYYCNARWVPSYWKYFHANYGYWGQGTQVTVSS” is “high polyreactivity”.
Turning to “QVQLVESGGGLVQAGGSLRLSCAASGSTFRGYAMGWYRQAPGKERELVAAISRADITNYADSVKGRFTISRDNAKNTVYLQMNSLKPEDTAVYYCNAGVGARESDYWGQGTQVTVSS”, the “polyreactivity (PSR sort gate)” value was “low polyreactivity”.
The entry for “QVQLVESGGGLVQAGGSLRLSCAASGSTFRGYAMGWYRQAPGKERELVATITSGGSTNYADSVKGRFTISRDNGKNTVYLQMNSLKPEDTAVYYCNARWVPRYWYDYWGQGTQVTVSS” is “high polyreactivity”; for “QVQLVESGGGLVQAGGSLRLSCAASGSTFRGYAMGWYRQATGKERELVAAISSSGGRTYYADSVKGRFTISRDNAKNPVYLQMNSLKREDTAVYYCNAASKNSVRYAYQNYDYRGQGTQVTVSS” it is “high polyreactivity”.
Consider “QVQLVESGGGLVQAGGSLRLSCAASGSTFRGYAMGWYRQVPGKERELVADISWSGTSTYYADSVKGRFTISRDNAKNTFYLQLNSVIPEDTAVYYCAKGGRDRSRKYYYWGQGTQVTVSS”, for which the “polyreactivity (PSR sort gate)” value is “high polyreactivity”.
As for “QVQLVESGGGLVQAGGSLRLSCAASGSTFRGYTMGWYRQAPGKEREFVATISSRGGSTNYADSVKGRFTISRDNAKNTVYLQMNSMKPEDTAVYYCNVRRVWWEWPRGDSWGQGTQVTVSS”, the entry is “high polyreactivity”.
Regarding “QVQLVESGGGLVQAGGSLRLSCAASGSTFRGYVMGWYRQAPGKERELVAAISRSGTSTYYADSVKGRFTISRDNAKNTVYLQMNSLKPEDTAVYYCAAQLYGHGEDYWGQGTQVTVSS”, the “polyreactivity (PSR sort gate)” value was “high polyreactivity”.
Turning to “QVQLVESGGGLVQAGGSLRLSCAASGSTFRHYAMGWYRQAPGKERELVAAISSRGGSTYYADSVKGRFTISRDNAKNTVYLQMNSLKPEDTAVYYCNVVGYQRPSYRHMDYWGQGTQVTVSS”, the “polyreactivity (PSR sort gate)” value is “high polyreactivity”.
As for “QVQLVESGGGLVQAGGSLRLSCAASGSTFRIYAMRSYRQAPGKERELGARISWNGGRTYYADSVKGRFTISRVNAKNTVYLQMNSLKPEDTAGYYCNALVPPGYDYWGQGTQVSVSS”, the entry is “high polyreactivity”.
As for “QVQLVESGGGLVQAGGSLRLSCAASGSTFRIYTMGWYRQAPGKERELVAGISSSGNTNYADSVKGRFTISRDNAKNTVYLQMNSLKPEDTAVYYCNAASLKFTSPVRFGYWGQGTQVTVSS”, the entry is “high polyreactivity”.
As for “QVQLVESGGGLVQAGGSLRLSCAASGSTFRKYAMGWYRQAPGKEREFVAAITWSTGTTYYADSVKGRFTISRDNAQNTVYLQMNSLKPEDTAVYYCSADSKPPHELYESIEHESWGQGTQVTVSA”, the entry is “low polyreactivity”; as for “QVQLVESGGGLVQAGGSLRLSCAASGSTFRKYAMGWYRQAPGKERELVAAISRGGDSTYYADSVKGRFTISRENAKNTVYLQMNSLKPEDTAVYYCAADTRPGYSGFEYRGQGTQVTVSS”, “high polyreactivity”; as for “QVQLVESGGGLVQAGGSLRLSCAASGSTFRKYAMGWYSQAPGKERELVAAIRRNGVSTYYADSVKGRFTISLDNAKNTVYLQMNSLKPEDTAVYYCNARTKPDYDWGQGTQVTVSS”, “high polyreactivity”.
Turning to “QVQLVESGGGLVQAGGSLRLSCAASGSTFRLYAMGWYRQAPGKERELDAAISGSGGSTYYADSVKGRFTISRDYEKNTVYLQMNSLKPVDTAVYYCAAEVVRRYYAGRGYWGHGTQVTVSS”, the “polyreactivity (PSR sort gate)” value was “high polyreactivity”.
The entry for “QVQLVESGGGLVQAGGSLRLSCAASGSTFRLYTMGWYRPAPVKERELVAAITSGGSTNYADSVKGRFTISRDNAKNTVYLQMNSLKPEDTSVYYCAIAKRFPSFDYWGQGTQVTVSS” is “low polyreactivity”.
With “QVQLVESGGGLVQAGGSLRLSCAASGSTFRPYAMGWYRQAPGKEMELVARMTGSGDSTYYADSVKGRFTISRDNAKNTVYLQMNSLKPEDTAVYYCNALYTSLRKYNYWGQGTQVTVSS”, the “polyreactivity (PSR sort gate)” value is reported as “low polyreactivity”.
The entry for “QVQLVESGGGLVQAGGSLRLSCAASGSTFRPYAMGWYRQAPGKERDLVAAISSSGGSTYYADSVKGRFTISRDNAKNTVYLQMNSLKPEDTAVYYCAAVRRYRYPEYNHWGQGTQVTVSS” is “low polyreactivity”; for “QVQLVESGGGLVQAGGSLRLSCAASGSTFRPYAMGWYRQAPGKERELVAAISSGDSTYYADSVKGRFTISRDNAKNTVYLQMNSPKREDTAVYYCAKRNYWHRGGGYWGQGTQVTVSS” it is “high polyreactivity”.
As for “QVQLVESGGGLVQAGGSLRLSCAASGSTFRPYAMGWYRQAPGKERELVAAISWSGGRTYYADSVKGRFTISRDNAKNNVYLQMNSLKPEDTAVYYCNRAGRQPKNTYDYWGQGTQVTVSS”, the entry is “high polyreactivity”; as for “QVQLVESGGGLVQAGGSLRLSCAASGSTFRQNAMGWYRQAPGKERELVAAISGTAGSTYYADSVKGRFTISRDNAKNTVYLQMNSLKPEDTAVYYCAKRKITKYGYGYWGQGTQVTVSS”, “high polyreactivity”.
Regarding “QVQLVESGGGLVQAGGSLRLSCAASGSTFRQYAMGWYRQAPGKERELVAAITWRGDNTYYADSVKGRFTISRDNAKNTVYLQMNSLKPEDTAVYYCAARWSYRLYWGYGYWGQGTQVTLSS”, the “polyreactivity (PSR sort gate)” value is recorded as “low polyreactivity”.
As for “QVQLVESGGGLVQAGGSLRLSCAASGSTFRQYSMGWYRQAPGKERELVAAISWSGGSTYYADSVKGRFTISRDNAKNTVYLQMNSLKPEDTAVYYCAAGRGGHRYKVGYWGQGTQVTVSS”, the “polyreactivity (PSR sort gate)” value is recorded as “high polyreactivity”.
As for “QVQLVESGGGLVQAGGSLRLSCAASGSTFRRNAMGWYRQAPGKEREFVAAISSRGGSTYYADSVKGRFTISRDNAKNTVYLQMNSLKPEDTAVYYCAADKASRHSNPFYYWGQGTQVTVSS”, the entry is “high polyreactivity”; as for “QVQLVESGGGLVQAGGSLRLSCAASGSTFRRNAMGWYRQAPGKERELVAAIDKSGGTTYYADSVKGRFTISRDNAKNTVYLQMNSLKPEDTAVYYCAVRSYLSSRGSHDYWGQGTQVTVSS”, “low polyreactivity”; as for “QVQLVESGGGLVQAGGSLRLSCAASGSTFRRNAMGWYRQAPGKERELVAAISRSGGSTYYADSEKGRFTISRDNAKNTVYLQMNSLKPEDTVVYYCAADAARTSHWSGDYWGQGTQVTVSS”, “high polyreactivity”.
The entry for “QVQLVESGGGLVQAGGSLRLSCAASGSTFRRYAMGWYRPAPGKERELVAAISRSGGTTYYADSVKGRFTISRDNAKNTVYFQMNSLKPEDTAVYYCNARYPVVRYDYWGQGTQVTVSS” is “high polyreactivity”.
The entry for “QVQLVESGGGLVQAGGSLRLSCAASGSTFRRYAMGWYRQAPGKEREFVAAITWSGGNTYADSVKGRFTISRDNAKNTVYLQMNSLKPEDTAVYYCAVQLVYDHYRYDYWGQGTQVTVSS” is “high polyreactivity”; for “QVQLVESGGGLVQAGGSLRLSCAASGSTFRRYAMGWYRQAPGKERELVAAITWRGGSTYYADSVKGRFTISRDNAKNTVFLQMNSLKPEDTAVYYCATSDYYYDYWGQGTQVTVSS” it is “high polyreactivity”.
As to “QVQLVESGGGLVQAGGSLRLSCAASGSTFRRYAMGWYRQAPGKERELVADISSGGSTYYADSVKGRFTISRDNAKNTVYLQMNSLKPEDTAVYYCNAKTFYYGSRFRRAEYDYWGQGTQVTLSS”, the “polyreactivity (PSR sort gate)” value is “low polyreactivity”.
As for “QVQLVESGGGLVQAGGSLRLSCAASGSTFRRYTMGWYRQAPGKERELVAAITWSGGSTYYADSVKGRFTISRDNAKNTVYLQMNSLKPEDTAVYYCAADRPYHTREYYYWGQGTQVNVSS”, the entry is “low polyreactivity”; as for “QVQLVESGGGLVQAGGSLRLSCAASGSTFRSYAMGWYRQAPGKERELVAAITSSGGRTYYADSVKGRFTISRDNAKHTVYLQMNSLKPEDTAVYYCAARTYSWGDWGQGTQVTVSS”, “high polyreactivity”; as for “QVQLVESGGGLVQAGGSLRLSCAASGSTFRTKAMGWYRHAPGKERELVAAITSGTRTYYADSVKGRFTLSRDNAKNTVYLQMNSLKPEDTAVYYCAAEYYGSSYSNYRTEYDYWGQGTQVTVSS”, “low polyreactivity”.
Consider “QVQLVESGGGLVQAGGSLRLSCAASGSTFRTNAMGWYRQAPGKERELVAAISGNGGSTYYADSVKGRFTISRDNAKYNVYLQMNSLKAEDTAVYYCAARRGYRYYPPFGYWGQGTQVTVSS”, for which the “polyreactivity (PSR sort gate)” value is listed as “high polyreactivity”.
The entry for “QVQLVESGGGLVQAGGSLRLSCAASGSTFRTNTRGWYRQAPGKERELVAAITKSGGSTYYADSVKGRFTISRDNAKNTVYLQMNSLKPEDTAVYYCAARVLYRSGLRGDYWGQGTQVTVSS” is “high polyreactivity”; for “QVQLVESGGGLVQAGGSLRLSCAASGSTFRTYAMGWYRQAPGKERELVAAIRSRGGSTYYADSVKGRFTISRDNAKNTVYLLMNSLKPEDTAVYYCNAVPRWSYVDEDSWGQGTQVTVSS” it is “high polyreactivity”.
The entry for “QVQLVESGGGLVQAGGSLRLSCAASGSTFRTYAMGWYRQAPGKERELVAAISYNGGSTYYADSVTGRFTISRDNAKNTVYLQMNILKPEDTEVYYFAKDQTGYWYNRYGYWGQGTQVTVSS” is “low polyreactivity”.
As for “QVQLVESGGGLVQAGGSLRLSCAASGSTFRTYSMGWYRQAPGKEREWVASITSSGASTYYADSVKGRFTISRDNAKNTVYLQMNSLKPEDTAVYYCAKGYPWYYRYKYDSWGQGTQVTVSS”, the entry is “high polyreactivity”.
